Measurements from the domain aggregation screens of Martell et al. (2025).

Assay: soluble fraction after stress (log2 fold change); higher = more stays soluble; pooled small domains, quantitative proteomics
Conditions: stress: 75 degC
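Note: 20 min heating vs room temperature control held 20 min.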

Sequence | soluble fraction (log2)
HMGNPSGLPLPRFASTRSEPINVRVGPGQKYDIAWTYLKSGIPVEIIQEFDTWRKIRDFDGAEGWIHQNLL | -1.22
HMGNSRNDQDLQTQIIKILAEGPASSRTLIETLTIEDEAALLKTLKRLLMNKKISLTPSNLYKL | -1.06
HMGPAAGVVEKYNLAHLSTGEMIRKEIAEGSDFGKMAAGIINKGELLSDEFVVALIENSIEHHKNVDGFLF | -0.195
HMGPAVGAIRVEGNKRVEPETVRTYLTFNVGDPYDLAKVDESLKALFATGLFQDVRIRREGNTVVIVVVEN | -0.701
HMGPAYQTQRQEAFAALSEIAAKNPQLMQVAGDLVFRAADFPMADELADRLAKTLPPQLQDKKGQP | -0.455
HMGPEISEDAKVVFDRLKNHDEILLNNFKSEFDLSNKKWDKIIKELRGNDLISIIKSEDGNLFIKP | -0.125
HMGPELGENEKLIFDIIKKESKMELGILKAQVDLSNKKWDKALKGLATHGLTKVNKTDDGLFIELI | -0.555
HMGPIITKTYNLSYATARDVNDIIKSKKSARGDIVIDTRTNSLIVSDVQEKIDLIDEIVATL | -0.368
HMGPLSDRSVADWLLRLGLADTANNRLLLQVMHAAGLPLERTAVRAMRETAAGRPEGTDAREWLQAAAAAQ | -0.571
HMGPNSVPDLRGKSLRQAMKMVNDLELKAIFEGEGIVVGQVPAPGKPVPETKILKITLSLEPY | -1.58
HMGPPAVGSKLQDARKAQQLSLDELSKRAGVSKSMLSEVERNQANPTVGVLWRLATALGISLTDLLG | -1.11
HMGPPLISLDDGLAKGFGVGVGDTLTINILGRRITATIASLREIDWQSLRFDFAVVLSPGVLEGA | 0.237
HMGPRKAGSEATRQKILDAAEILFAERGFHSVSVRDITTEAGVDVALINYHFGSKQLLFETVFMRR | -0.32
HMGPRPLPAEFTHPSLRALLALGTTRGGVTSADVKTALEAASVPAGRRAAVLRALDDNGIEVHTEP | -0.0155
HMGPSEVTLDNFVGKNYTDVVNDTSYQFTFKKEEKSDQTHAAGIIIAQSPKKGIKVKSNSTVTLTVSTG | 0.359
HMGPVDFYQMFISELQHLAEKPVTVDALIESTQLHKSQLTEWLKRAVDDGVVKKLNRPARFQVKNK | 0.0567
HMGPVRDLGLLESAAHRPTTALWGRDVYATIEKKAAALLDSLVRDRPLADGNKRLGWLAALV | 0.291
HMGPYGAGSAAPAEDGSGPEGWTVKGNAKSMLYHTEGSPYYGRTNADVWFRDEESAEAAGFRRWDRK | -0.0366
HMGQAELPYSEFLREVNNGQVKSVIIEGSEITGFYKTSGTSFNVIAPDDPKLVERLMAQGVEVRAQPA | 0.144
HMGQDLEAFLLKAVGQLDQGDGVTLDALLKVAVSNGGFVREVAEAKLDDMLDAGTLDEPRFGWFRVGAT | -0.41
HMGQDLSYYIKIVQNQQPVDPLTGEPKVLDYGEVIRQAQILQMLDTGDLDRDKAIGQLSMKDAL | 0.292
HMGQELRFVIQDHEAGIRLDHYLTQQVEGYSRSHLRKLMDQGLITVDGSYRKAGYRLNVGDVIHVVIPPTR | -0.813
HMGQELTPVERTALDIAARDGKVSTRILAQEAGIGLRTASKTLAALAERGLLTWHGTSRRDPQQHYTS | -0.0688
HMGQISDESVLKEMVVQLIADNPKEVASYLGGKETLLQWFMGQVARATKGKADPQAVKQLLLDEFEKLK | 0.0498
HMGQKETIVDLLKTNGTMTQLALAEAIYGDKNHGPNIYSVLMGRVNSGAVLRTGSQPAYYSLSG | 0.209
HMGQKMLTIELQEKVNKMPDNLASYDLKLSADGMSLIYKYSLKSERTGITALLQELKNAGLVMRDLKTEQ | -0.641

Sequence | soluble fraction (log2)
HMGQLSDREALTVLAREALVELPRAAGDYRNGRTAALQSLVGRVMRKTAGRGNPALLQEIFRSLL | -0.542
HMGQLVVHQIKGEASRLDKFLVVNIPKYSRSVWREMINNGSVQVNGRVVKPHLLVKEGDIITWSS | -1.4
HMGQLVYPAGVYDVNKSYITDSNSAPYVLDKTDNNYYVLNTQMTWKGTEQDNKTPSQSYEESGGSVWLLFD | -0.118
HMGQPAVSSRDVAEQFGKEHRNVIQSIKNLIAENSALTFMFIEDTYTAGTGKKYPMYYMNRDGFTLLA | 0.337
HMGQPGNWTSYVFKNSDTEPAKPTSSGPIPSGWNDAPTGVGIWWMSKATIDASTGKAGSWSTPIRVTGED | -0.0861
HMGQSKNERMLELVELLNKASRSYYQDAQEIMSNYEYDRLYDELQNLEKELGITLSNSPTVN | -0.122
HMGQVSDETGLARVVDALLAAHPDEVAKYRAGKTSLLGWFMGQVMKETRGQANPDLARALVLERLE | -0.342
HMGQYSTTLDKIENSLFGFTYSNEAENTRINRIENKVYGKTSTSQTSTRIAKLKKDLSVDEMG | 0.111
HMGREVVVPNLAGIEKEVALDLLKKNRLGGMITGTRFSSDFPAGQVIQQMPEAGSRVKVGKQVKLVLSEG | 0.207
HMGRGSEDEQMRGLAVILAEQKQIMQTLGVENEVVKPEQYINTLKRMAELNGFKDTDQFFSIPQ | 0.26
HMGRHSPLSIEQKEQLKTEIVALQQQRGGGRVTAVNIAELIQQKFNVVYNPNSLYKLLKQIGMSWV | -1.94
HMGRKEIIVPNLLGKYAIEAGTILKNAGLLEGQAREENSDTYPAGQIMDQFPKANTPANENDKVDYVVSI | ≥ 1.04
HMGRLEVDLVVPYDKYEAMNVIRAEGRILKEDHQGDGAHLKIQINETALWKLKRMLGEGYGQ | -0.13
HMGRLPMNIVRAIVEHLDRHASYSEINRATGASKGFISKVAAAVEAASLTPEKFLLLNDEDIQNRITPGR | -0.739
HMGRPTLEQLLDRAQAMGVPRERYAAYADRRWGRGWRVNPHGRGRAWDELDRYRNDPAGYLDKIEVELNQL | -0.341
HMGRQVTVPNVTGMLVEEARAAISEAELWVDSPRAVQGEVTRQEPARGERLSPGQEVRIYTES | 0.204
HMGRRSKAMLSSALDAVPGLGEMRRKALISQFGSLKKLRGATPEEIAAVPGIGPKLAAAVHEAVSG | -0.0903
HMGRSTQVPGVEKMTYSQAVQLLHDHGFRVDIRDSLYRDDIKPGHVIEQFPKAKSIVKPGRKIFLYINAV | -1.43
HMGRTGTVVVSPSLNVRTGPWGEIIGSLYNGNKVEIIGSSGDWYQISFGGKTAYVHSDYVVDGG | -1.26
HMGSDAFDISKLNLVGKTKESAESLLKENGFSVDTKEEASDTAAKGTVISYSPTKPKNGERVTLTVSSGK | 0.385
HMGSDQEAAMARQDRLSTLVDYVVERGSVHVDDIVADLGVSPATVRRDLDALAAQQLIIRTRGGATANHT | 0.034
HMGSGKGAAHTILGISADASDDEIKAAWRKLVQENHPDKLVSQGLPDEFVQAATDRLRLINTAYQSMLNRP | -0.0948
HMGSGLAAAEKIRKAHPEIKIVVATSLIDTQVLARAKAVGADSLWYKDGDEGTLMQVVRRTMAGDHIFP | -0.038
HMGSIGAMLSSPELYGKLATNPATRGFLSQPDFIAMLTDVQKNPDKFGSYMSDPRMMQVLSVALG | -0.231
HMGSIRDIIVQYLSKFDDPQPAAKIVEYVQQYRDTTESSIRSSMGSGDQFVQFSGGLYGLKDKTYAAWYSI | -0.916
HMGSLKISNPVKDTLWIQGVDGLKSIEIYSSTGQLVKTILGNQGDVSSLPKGVYFLKINTPSESLTAKIIK | -1.28

Sequence | soluble fraction (log2)
HMGSLPPPKDGTTIYVVKPGDSLWRISGKFFGNPLFWPRLWEINPNIDNPNKIYPGDVISLKP | 0.24
HMGSLVKLQSAAELHQAGRSAEAVPILLEVLATNPRLVDGWEILANALEKLGRLDEALAALKKTVALSPPG | -1.55
HMGSNENTIREYFDSLIASASKREIMDANPTMSQRTVERILQKLQAEGYVEKIGAARSTRYRRA | -0.0404
HMGSQLYTLEVEADEKISLIENNPLLIQKIYLKDNNLFSYKIASSSKTEIASIEKELEKNPSIKRLETA | -0.086
HMGSQQIEEGMRRLVASGALRPGASVPSVRDLARDLQVNPATVVRAYQRLVDAGLLVVRRGEGTFVAE | -1.77
HMGSSLLSPKEREVLQLLAGNLSNKQIALAMGVSDETIKWHLRNLFGKLNAGGRKHLIDRARMLGLLAAA | -1.61
HMGSVHDAATDRIREMILGGQFEPGERLRQDDLATSLGVSTMPVREALRQLQAEGLVVFYPRKGAVVAR | 0.168
HMGTAEDYLLPRRAEILSIIRDHEFANFDLIRRRFLAVNERTLRYDLKKLSDLGLIKKLGKTRGVYYRAAK | -1.84
HMGTAVKAPMPGTILKVNVTAGQSVKAGDIMFILEAMKMENEIVAPSDGTVSQVVAAKGSSVATDDVLAYL | -0.586
HMGTDGLKDIVLEILKEHPNQLAELIDGKQKVLGFLVGQVMKKTNGAANPKEVNEIIQGEIKK | 0.179
HMGTELSYSEFLNKVEAGEVTNVTIRGPEITFQTGNSSYTTYAPDDPKLIEHLTAKGVAIKAGP | 0.608
HMGTGELLVHVIGAVHSPGVVRLPTGARVVDAIDAAGGAREDAQTEQLNLARLVDDGEQVRVPVVGESVD | 0.081
HMGTGIKQVNVVSVIGQDEETAKTTLTNLGLKVNVTYATSTSDNGKVTKQSIDAGKTVDEGTSVTITVNKV | ≥ 1.04
HMGTHSAEQVRAAIRAIVAAEDAANPLSDARITELLAMRGIAAARRTVMKYREQLGIPSSAKRRR | -1.94
HMGTHVVQEGEYLDLIIEKTIPGSPIRKDLLRKAFVKLNPSAFGGRGNPNYIFARKKLKVPSVEDLKAVIF | 0.127
HMGTIEEYSKYLINQYFDSLKKPMDAMTTSEKIEIVKSLDKKGIFNLKGSVGELAKRFNTSEKTIYRYLSS | -0.202
HMGTKRWELPRRVQQMATQHGKSISTAAAEELVSRSGENTRMLDNDLVKLAQMVEAPQIELADVERWIVR | 0.207
HMGTLPSLAPSGEKTVRLPNLAGWSLRETMEILQKGGLQLLPIGSGISFKQSPPPGTTLNEGDAVTVWF | 0.00884
HMGTNTTGWIKIADDWKYIDSNGEYTVNDWRQSADGGWYYLGYNGNMLKNQTTPDGYYVDAEGLWDGMSPA | -0.54
HMGTPEQVVVSSVLKETNEIVLKWPADGFMAKYKMDNLNLNFEPVHGQGVMGYFIGSRLIKLELV | -1.43
HMGTPSAEELAFSAQKGNAVMRIMEIREKYIENGGQISDEERNEIERLIAIYYPKASIFDYLPMMG | -0.367
HMGTSFEDIDRAVKSVRKPETDEAEKLHAGKTFKDIAETELFQKLTESFAGISDRVNEVIDLYTARAAE | 0.188
HMGTSSAEIAAELRAQIFAGELRPGEMLPSAREITGTWNVAIATASRVHALLRSEGLATPVPGVGTVVAT | 0.223
HMGTTAWISTKTANGSVNIRTGPGTGYGVIGWALNGDKLEVLSRGTSWHYVKLVKNGKIGYVSASYVSFTQ | -3.41
